Assay [1] concerns the target human complement C1r, zymogen form (human) (UniProt P00736).
The target in assay [2] is Borrelia hermsii strain HS1 FbpC C-terminal domain, residues 212-374 (Borrelia hermsii strain HS1). Kind of assay: SPR; FbpC-C, FbpC-C R248A or FbpC-C H252A immobilised by amine coupling on a CMD200 chip (1138.2, 975.2, 1082 RU); zymogen or active C1r injected, single-cycle five-fold dilution series 0.16 to 100 nM; Biacore T200, 25 °C, 30 μl/min; HBS-T (10 mM Hepes pH 7.3, 140 mM NaCl, 0.005% Tween 20) with 5 mM CaCl2; kinetic fits, triplicate.

Assay [3] deals with Borrelia hermsii strain HS1 FbpC C-terminal domain, residues 212-374, R248A (Borrelia hermsii strain HS1). Described as above.
Assay [4] has as its target Borrelia hermsii strain HS1 FbpC C-terminal domain, residues 212-374, H252A (Borrelia hermsii strain HS1). The assay is described as above.

On to “Borrelia hermsii strain HS1 FbpC C-terminal domain, residues 212-374 (domain or fragment)”, for which, in assay [1], the CP hemolysis of presensitized sheep erythrocytes (2% normal human serum), IC50 stood at 320 nM and the CP-specific complement ELISA (C4b deposition, 2% normal human serum), IC50 amounted to 8.6 nM.

The molecule “Borrelia hermsii strain HS1 FbpC C-terminal domain, residues 212-374, H252A (domain or fragment)” showed a CP-specific complement ELISA (C4b deposition, 2% normal human serum), IC50 in assay [1] of 300 nM.

Consider “Borrelia hermsii strain HS1 FbpC C-terminal domain, residues 212-374, R248A (domain or fragment)”, for which, in assay [1], the CP hemolysis of presensitized sheep erythrocytes (2% normal human serum), IC50 was 1200 nM and the CP-specific complement ELISA (C4b deposition, 2% normal human serum), IC50 stood at 23 nM.

B1: human complement C1r, zymogen form (enzyme)
chain: SIPIPQKLFGEVTSPLFPKPYPNNFETTTVITVPTGYRVKLVFQQFDLEPSEGCFYDYVKISADKKSLGRFCGQLGSPLGNPPGKKEFMSQGNKMLLTFHTDFSNEENGTIMFYKGFLAYYQAVDLDECASRSKSGEEDPQPQCQHLCHNYVGGYFCSCRPGYELQEDTHSCQAECSSELYTEASGYISSLEYPRSYPPDLRCNYSIRVERGLTLHLKFLEPFDIDDHQQVHCPYDQLQIYANGKNIGEFCGKQRPPDLDTSSNAVDLLFFTDESGDSRGWKLRYTTEIIKCPQPKTLDEFTIIQNLQPQYQFRDYFIATCKQGYQLIEGNQVLHSFTAVCQDDGTWHRAMPRCKIKDCGQPRNLPNGDFRYTTTMGVNTYKARIQYYCHEPYYKMQTRAGSRESEQGVYTCTAQGIWKNEQKGEKIPRCLPVCGKPVNPVEQRQRIIGGQKAKMGNFPWQVFTNIHGRGGGALLGDRWILTAAHTLYPKEHEAQSNASLDVFLGHTNVEELMKLGNHPIRRVSVHPDYRQDESYNFEGDIALLELENSVTLGPNLLPICLPDNDTFYDLGLMGYVSGFGVMEEKIAHDLRFVRLPVANPQACENWLRGKNRMDVFSQNMFCAGHPSLKQDACQGDSGGVFAVRDPNTDRWVATGIVSWGIGCSRGYGFYTKVLNYVDWIKKEMEEED
In assay [2], B1 showed a Kd of 1.2 nM, a koff of 5.4e-05 s⁻¹ and an on-rate (kon) of 44000 M⁻¹ s⁻¹. In assay [3], this molecule displayed a dissociation constant Kd of 13 nM, an off-rate (koff) of 0.00063 s⁻¹ and a kon of 69000 M⁻¹ s⁻¹.

B2: human complement C1r, activated form (enzyme)
chain: B1 chain
In assay [4], B2 came in with a Kd of 2.4 nM, a koff of 0.00012 s⁻¹ and a kon of 51000 M⁻¹ s⁻¹. In assay [2], the dissociation constant (Kd) turned out to be 0.3 nM, the koff stood at 1.4e-05 s⁻¹ and the kon is 48000 M⁻¹ s⁻¹. Further, in assay [3], the dissociation constant Kd was determined as 0.19 nM, the koff was determined as 9.4e-06 s⁻¹ and the kon came to 45000 M⁻¹ s⁻¹.

Values taken from PMC10413161.
